{"source": "paper PMC6208348", "about": "(Nature Communications, 2018)", "molecular_target": "GST-fused Grb2 SH2 domain (human, UniProt P62993 60-152)", "sequence (P62993 60-152)": "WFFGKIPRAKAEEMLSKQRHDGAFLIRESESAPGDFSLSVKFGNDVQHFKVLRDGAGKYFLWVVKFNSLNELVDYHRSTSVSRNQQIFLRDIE", "test": "peptide or protein array", "details": "both partners purified", "note": "Non-standard residues stand in square brackets, D forms with d. No end group written: not given here. pY = N[C@@H](Cc1ccc(OP(=O)(O)O)cc1)C(=O)O"}
{"binder": "DPS[pY]VNVQNL", "note": "[Shc1 pTyr317 peptide (DPSpYVNVQNL) on the permutation array]", "values": [{"measurement": "binding result", "result": "binds"}]}
